In article PMC10042821, “Cryo-EM structure of human eIF5A-DHS complex reveals the molecular basis of hypusination-associated neurodegenerative disorders” (Nature Communications, 2023):

Tests used:
Assay in all cases: MST; His-tagged DHS variants labelled with RED-tris-NTA 2nd Generation, 8.32 nM; eIF5A titrated, sixteen dilutions 0.00175–57.5 μM; 50 mM Tris, 200 mM NaCl, 5 mM β-ME pH 8; Monolith NT.115, 40% excitation power, 60% MST power; no NAD or SPD
Conditions in all cases: both partners purified
[1] = target: T1, deoxyhypusine synthase, wild type, His-tagged (human, UniProt P49366 1-369, RED-tris-NTA 2nd Generation dye on the His tag)
T1 construct: human deoxyhypusine synthase, Uniprot P49366, residues 1-369, in pET24d with N-terminal 6xHis-tag and TEV site; also called DHS; DHS wt; source: E. coli, purified; not shown: 6xHis, N-terminal, kept
T1 sequence (looked up): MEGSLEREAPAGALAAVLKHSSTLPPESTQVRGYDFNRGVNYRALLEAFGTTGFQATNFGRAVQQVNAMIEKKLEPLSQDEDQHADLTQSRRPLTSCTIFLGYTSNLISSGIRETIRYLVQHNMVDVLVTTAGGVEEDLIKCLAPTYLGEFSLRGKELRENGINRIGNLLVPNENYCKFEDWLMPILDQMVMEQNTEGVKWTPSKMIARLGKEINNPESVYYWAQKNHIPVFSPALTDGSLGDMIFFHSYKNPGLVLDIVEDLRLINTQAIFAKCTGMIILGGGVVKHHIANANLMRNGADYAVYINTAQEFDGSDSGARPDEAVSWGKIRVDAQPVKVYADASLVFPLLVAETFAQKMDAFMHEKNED

[2] = target: T2, deoxyhypusine synthase N173A, His-tagged (human, UniProt P49366 1-369, N173A, RED-tris-NTA 2nd Generation dye on the His tag)
T2 construct: human deoxyhypusine synthase, Uniprot P49366, residues 1-369, site-directed mutant of the pET24d full-length construct; also called DHS N173A; source: E. coli, purified; not shown: 6xHis, N-terminal, kept
T2 sequence (looked up): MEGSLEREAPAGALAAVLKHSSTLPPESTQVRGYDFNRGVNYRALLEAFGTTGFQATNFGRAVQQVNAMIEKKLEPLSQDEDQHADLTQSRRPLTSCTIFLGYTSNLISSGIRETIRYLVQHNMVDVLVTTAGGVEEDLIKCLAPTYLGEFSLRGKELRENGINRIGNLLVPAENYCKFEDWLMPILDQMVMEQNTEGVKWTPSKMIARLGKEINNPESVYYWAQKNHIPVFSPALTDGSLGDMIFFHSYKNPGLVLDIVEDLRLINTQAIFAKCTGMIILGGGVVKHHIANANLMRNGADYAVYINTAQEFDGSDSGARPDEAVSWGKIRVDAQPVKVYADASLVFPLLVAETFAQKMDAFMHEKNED

[3] = target: T3, deoxyhypusine synthase Q83A, His-tagged (human, UniProt P49366 1-369, Q83A, RED-tris-NTA 2nd Generation dye on the His tag)
T3 construct: human deoxyhypusine synthase, Uniprot P49366, residues 1-369, site-directed mutant of the pET24d full-length construct; also called DHS Q83A; source: E. coli, purified; not shown: 6xHis, N-terminal, kept
T3 sequence (looked up): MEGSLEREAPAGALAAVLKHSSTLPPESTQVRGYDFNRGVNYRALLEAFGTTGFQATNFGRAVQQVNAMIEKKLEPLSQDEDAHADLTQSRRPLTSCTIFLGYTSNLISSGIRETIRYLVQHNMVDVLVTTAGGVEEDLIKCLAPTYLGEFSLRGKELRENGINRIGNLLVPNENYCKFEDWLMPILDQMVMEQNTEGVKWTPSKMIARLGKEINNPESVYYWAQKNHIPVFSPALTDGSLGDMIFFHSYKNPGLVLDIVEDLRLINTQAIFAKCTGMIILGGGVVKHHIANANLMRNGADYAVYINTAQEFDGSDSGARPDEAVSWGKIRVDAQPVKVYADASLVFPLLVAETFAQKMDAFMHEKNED

[4] = target: T4, deoxyhypusine synthase F247A, His-tagged (human, UniProt P49366 1-369, F247A, RED-tris-NTA 2nd Generation dye on the His tag)
T4 construct: human deoxyhypusine synthase, Uniprot P49366, residues 1-369, site-directed mutant of the pET24d full-length construct; also called DHS F247A; source: E. coli, purified; not shown: 6xHis, N-terminal, kept
T4 sequence (looked up): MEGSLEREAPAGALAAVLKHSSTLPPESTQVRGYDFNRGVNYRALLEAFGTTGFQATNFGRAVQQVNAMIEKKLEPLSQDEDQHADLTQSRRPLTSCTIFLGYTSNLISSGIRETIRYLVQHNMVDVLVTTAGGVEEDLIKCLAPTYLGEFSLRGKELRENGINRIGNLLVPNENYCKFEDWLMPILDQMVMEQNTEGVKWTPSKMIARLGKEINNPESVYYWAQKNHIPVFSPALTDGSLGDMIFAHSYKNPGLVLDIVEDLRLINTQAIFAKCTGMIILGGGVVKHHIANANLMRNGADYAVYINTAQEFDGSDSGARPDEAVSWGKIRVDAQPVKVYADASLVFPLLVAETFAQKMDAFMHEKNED

B1: eukaryotic translation factor 5A (eIF5A-1), residues 15-151 (domain or fragment)
chain: not shown
notes: human eIF5A1, residues 15-151, from pET28-MHL (Addgene); The purification protocol removes the tag with TEV; source: E. coli, purified (HisTrap, TEV cleavage, reverse HisTrap, SEC); not shown: His tag, N-terminal, cleaved
In the case of B1, the Kd [1] is reported as 0.04 ± 0.009 µM, the Kd [2] is reported as > 5 µM and the Kd [3] is reported as > 5 µM. The Kd [4] was > 5 µM.
